Test: yeast display, Sf9 membrane polyspecificity reagent, FACS + sequencing; frameworks hold sequencing errors
How it was run: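 Galactose induction of a Saccharomyces cerevisiae BJ5465 synthetic nanobody display library ran 36–48 hours. The cells were then stained for 1 hour at 4 °C with 10% biotinylated, detergent-solubilized Sf9 membrane reagent, pulled down on streptavidin microbeads and FACS-sorted into low and high (top ~1%) gates on expression and reagent-binding fluorescence. Labels for polyreactivity follow the gate of origin.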
With “QVQLVESGGGLVQAGGSLRLSCAASGNSFREYTMGWCRQAPGKERELVAGISGSGGRTYYADSVKGRFTISRDNAKNTVFLQMNSLKPEDTAVYYCNDRWYYGIGYNYWGQGTQVTVSS” the “polyreactivity (PSR sort gate)” value was “high polyreactivity”. For “QVQLVESGGGLVQAGGSLRLSCAASGRIFYNYAMGWYRQAPGKERELVAAITRRAGRTYYADSVKGRFTISRDNSKNTVYLQMNSLKPEDTAVYYCAKDEPGSSRVLYDSWGQGTQVTVSS”, the “polyreactivity (PSR sort gate)” value was “low polyreactivity”. For “QVQLVESGGGLVQAGGSLRLSCAASGFIFGYYAMGWYRQAPGKERELVAAITGGGSTYYADSVKGRFTISRDNAKNTVYLQMNSLKPEDTAVYDCNADYGDGEYDYWGQGTQVTVSS”, the “polyreactivity (PSR sort gate)” value was “low polyreactivity”. In the case of “QVQLVESGGGLVQAGGSLRLSCAASGGTFYYYAMGWYRQAPGKERELVAAITKNGGSTYYADSVKGRFTISRDNAKNTVYLQMNSLKPEDTAVYYCAASRFGRMDYWGQGTQVTVSS”, the “polyreactivity (PSR sort gate)” value is reported as “high polyreactivity”. With “QVQIVESGGGLVQAGGSLRVSCAASGITFGNYDMGWYRQAPGKERELVAAITGSGGRTYYADSVKGRFTISRDNEKNTVYLQMNSLKPEDTAVYYCNRRQYGRKKQYDYWGQGTQVTVSS” the “polyreactivity (PSR sort gate)” value was “high polyreactivity”. With “QVQLVESGGGLVQAGGSLRLSCAASGRIFYGYAMGWYIQAPGKERELVAAITYIGGTYYADSVKGRFTISRDNAKNTVYLQMNSQKPEDTSVYYCASEPFYNFVYYTYPYWYDYWGQGTQVTVSS” the “polyreactivity (PSR sort gate)” value was “low polyreactivity”. For “QVQLVESGGGLVQAGGSLRLSCAASGLIFLYYAMGWNRQAPGKERELVAAIRTNYADSVKGRFTISRDNAKNTVYLQMNSLKPEDTPVYYCAAESCQTPTSAFDYWGQGTQVTVSS”, the “polyreactivity (PSR sort gate)” value was “low polyreactivity”. For “QFQLVESGGGLVQAGGSLRLSCAASGFIFGLYAMGWYRQAPGKERELVAAISRSGGSTYYADSVKGRFTISRDNAKNTVYLQMNSLKPEDTAVYYCNARYSWPRANWYDYWGQGTQVTVSS”, the “polyreactivity (PSR sort gate)” value was “high polyreactivity”. For “QVQLVESGGGLVQAAGSLRLSCAASGRTFSANAMGWYRQAPGKERELVATISSGGRTNYADSVKGRFTISRDNAKNTVYLQMNSLKPEDTAVYYCAKRGPYKRWYGRYDYCGQGTQVTVSS”, the “polyreactivity (PSR sort gate)” value was “low polyreactivity”. For “QVQLVESVGGIVQAGGSLRLSCAASGRIFGTNTMGWYRQAPGKERELVAGISSSGDSTYYADSVKGRFTISRDNAKNTVYLQMNSLKPEDTAVYYCNVYDYPTYDYWGQGTQVTVSS”, the “polyreactivity (PSR sort gate)” value was “low polyreactivity”. With “QVQLVESGGGLVQAGGSLRLSCAASGSTFGINAMGWYRQAPGKERELVASITRRGGSTYYADSVKGRFTISRDNAKNTVYLQMNSLKPEDTAVYYCNKTYRYGTPLYDYWGQGTQVTVSS” the “polyreactivity (PSR sort gate)” value was “high polyreactivity”. For “QVQLVESGGGLVQAGGSLRLSCAASGRTFGVNAMGWYRQAPGKERELVATIRRGGSTYYADSVKGRFTISRDNAKNTVYLQMNSLKPEDTAVYYCNASHVTWNRKYDYWGQGTQVNVSS”, the “polyreactivity (PSR sort gate)” value was “low polyreactivity”. For “QVQLVESGGGLVQAGGSLRLTCAASGSTFDLNAMGWYRQSPGKERELVARISSVGSTNYADSVKGRFTISRDNAKNSVYLQMNSLKPEDTAVYYCNAGFWDLYDYWGQGTQVTVSS”, the “polyreactivity (PSR sort gate)” value was “low polyreactivity”. With “QVQLVESGGGLVQAGGSLRLSCAASGSIRHNTMGWYRQAPGKEREFVASISKRGGSTYYADSVKGRFTISRDNAKNTVYLQMNSLKPEYTAVYYCNAGAVTFVGRDYWGQGTQVTVSS” the “polyreactivity (PSR sort gate)” value was “high polyreactivity”. With “QVQLVDSGGDLVKAGGSLRLSCDASGSTFRDYDMGWYRQAPGKERELVDAITGSGSSTYYADSVKGRFTISRDNAKNTVYLQMNSLKPEDTAVYYCAATWVVSYRVYRSYYWGQGTQVTVSS” the “polyreactivity (PSR sort gate)” value was “low polyreactivity”. With “QVQLVESGGGLVQAGGSLRLSCAASGSTFDSYAMGWYRQAPGKERELVAAISRSGGRTYYADSVKGRFTISRDNAKNTVYLQMNSLKPEDTAVYYCAAPVKVGHSLSGGDYWGQGTQVTVSS” the “polyreactivity (PSR sort gate)” value was “high polyreactivity”. In the case of “QVQLVESGGGLVQAGGSLRLSCAASGFIFPLYTMGWYRQAPGKERELVAAISWIGGRTYYADSVKGRFTISRDNAKNTVYLQMNSLKPEDSAVYYCAKDPTGGGYGYDYWGQGTQVTVSS”, the “polyreactivity (PSR sort gate)” value is reported as “low polyreactivity”. With “QVQHVESGGGLVQAGGSLRLSCAASGLILVYYAMGWYRQAPGKERELVAAITPGGSTKYADSVKGRFTISRDNAKNTVYLQMNSLKPEDTAVYYCAVDGDCHEPGNYIYEYDYWGQGTQVTVSS” the “polyreactivity (PSR sort gate)” value was “low polyreactivity”. With “QVQLVESGGGLVQAGGSLRLSCAASGRTLRRNTMGWYRQAPGKERELVAAISWSGGSTYYADSVKGRFTISRDNPKNTVYLQMNSLKPEDTAVYYCAKVPRIGSYEMGYWGQGTQVTVSS” the “polyreactivity (PSR sort gate)” value was “high polyreactivity”. In the case of “QVQLVESGGGLVQAGGSLRLSCAASGGTFVTNAMGWYRQAPGKERELVAAISYDGGITYYADSVKGRFTISRDNAKNTVYLQMNSLKPEDTAVYYCAAYRRYRNWFNYWGQGTQVTVSS”, the “polyreactivity (PSR sort gate)” value is reported as “high polyreactivity”. In the case of “QVQLVESGGGLVQAAGSLRLSCAASGSIFTVYVMGWYRLAPGKEREFVATINWRGTSTYYADSVKGRFTISRDNEKNTVYLQMNSLKPEDTAVYYCAAVGSYYGGYDYWGQGTQVTVSS”, the “polyreactivity (PSR sort gate)” value is reported as “high polyreactivity”. For “QVQLVESGGGLVQAAGSLRLSCAASGRILDFYDMGWYRQAPGKERELVAAITSGTSTYYADSVKGRFTISRDNAKNTVYLQMNSMKPEDTAVYYCAAAHVPVGQYVYWYDYWGQGTQVTVSS”, the “polyreactivity (PSR sort gate)” value was “low polyreactivity”. With “QVQLQESGGGLVQAGGSPRLSCAASDNIFPDSVMCWYRQAPGKERELVATIGFGATTNYADSVKGRFTISRDNAKNTVYLQMNSLKPEDTAVYYCAADPLIYEYFCYWGQGSQVTVSS” the “polyreactivity (PSR sort gate)” value was “low polyreactivity”. In the case of “QVQLVESGGGLVQAGGSLRLSCAASGFTFYTYMGWYRQAPGKERELVAAISWSGDSTYYADSVKGRFTISRDNAKNTVYLQMKSLKPEDTAVYYCAARRVFYNGYYVNVGSFYYWGQGTQVTVSS”, the “polyreactivity (PSR sort gate)” value is reported as “low polyreactivity”. With “QVQLVESGGGLVQAGGSLRLSCAASGSTFAYYAMGWYRQAPGKERELVAVISVRVGSTYYADSVKGRFTISRDNAKNTVYLQMNSLNPEDTAVYYCATDFFYHSLSSRQDGDYWGQGTQVTVSS” the “polyreactivity (PSR sort gate)” value was “high polyreactivity”. In the case of “QVQLVESGGGLVQAGGILRLSCAASGSIFLGNAMGWYRQAPGKERELVAVINSGGDTNYADSVKGRFTISRDNAKNTVYLQMNSLKPEDTAVYYCARRKGKWDSYGGWGQGTQETVSS”, the “polyreactivity (PSR sort gate)” value is reported as “low polyreactivity”. In the case of “QVQLVESGGGLVQAGGSLRLSCAASGRIFRRYAMGWYRQAPAKERELVAAITTSGGSTYYADSVKGRFTISRDNAKNTVYLQMNSQNPADTAVYYCNTVSPYKYDWGLGTQVTVSS”, the “polyreactivity (PSR sort gate)” value is reported as “high polyreactivity”. With “QVQLVESGGGLVQAGGSLRLSCAASGLIFYKYAMGWYRQAPGKERELVAAITRGGGSTSYADSVKGRFTISRDNAKNTVYLQMNCLKPEDTAVYYCNAAPYTRALQGEFDYWGQGTQVTVSS” the “polyreactivity (PSR sort gate)” value was “high polyreactivity”. For “QVQLVESGGGLVQAGGSLRLSCAASGIILSGYAMGWYRQAPGKDRELVAAIRRGGSTYYADSVKGRFTISRDNAKNTVYLQMNSLKPEDTAVYYCNAYSSRKVKWWDDYWGQGTQVTVSS”, the “polyreactivity (PSR sort gate)” value was “high polyreactivity”. For “QVQLVESGGGLVQAGGSLRLSFAASGRIFLRYAMVWYRHAPGKERELVAAISSRGGRTYYADSVKGRFTISRDNAKNTVYLQMNSLKPEDTAVYYCAAEGYYVTPFDYWGQGTQVTVSS”, the “polyreactivity (PSR sort gate)” value was “high polyreactivity”. With “QVQLVETGGGLVQAGGSLRLRGAASGFTFPWYAMGWYRQAPGKERELVAAISTSGDSTYYADSVKGRFTISRDNAKNTVYLQMNSLKPEDTAVYYCAARVVRGRYGYWGQGTQVTVSS” the “polyreactivity (PSR sort gate)” value was “high polyreactivity”. In the case of “QVQLVESGGGLVQAGGSLRLSCAASGIIFRFYAMGWSRQAPGKERELVATISKRGGTTYYADSVKGRFTISRDYAMNTVDLQMNSLKPEDSAVYYCAVRLYLEMDYWGQGTQVTVSS”, the “polyreactivity (PSR sort gate)” value is reported as “high polyreactivity”.
